# Laboratory results from article PMC10540404.
# Experiments:
# [1] = biological target: MHC-I (endogenous, mouse primary cortical neurons) (mouse (endogenous in primary cortical neurons)) (UniProt P01901); assay: co-IP; cultured mouse primary cortical neurons, with or without oligomeric Aβ; anti-mouse MHC-I antibody (2G5); endogenous MHC-I and NCAM1
# [2] = biological target: single-chain trimer (SCT) of HLA-A2.1 (TAX-HLA-A2.1-hβM); assay: co-IP
# Sequence of UniProt P01901 (P01901 22-369): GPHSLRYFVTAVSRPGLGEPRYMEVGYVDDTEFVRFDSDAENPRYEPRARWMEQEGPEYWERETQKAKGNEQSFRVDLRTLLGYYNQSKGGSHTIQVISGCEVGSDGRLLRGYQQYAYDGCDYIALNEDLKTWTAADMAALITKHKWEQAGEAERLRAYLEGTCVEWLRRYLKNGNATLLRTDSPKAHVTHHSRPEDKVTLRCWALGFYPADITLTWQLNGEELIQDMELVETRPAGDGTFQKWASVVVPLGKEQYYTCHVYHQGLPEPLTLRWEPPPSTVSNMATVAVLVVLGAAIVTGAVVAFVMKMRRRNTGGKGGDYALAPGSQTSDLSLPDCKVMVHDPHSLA
reduction of co-precipitated NCAM1 with Aβ treatment against control [1],fold increase of the complex with Aβ treatment [2],Substance
50%,,"NCAM1 (endogenous, mouse primary cortical neurons) (from UniProt P13595 20-1115) (natural protein)"
,1.5 fold,NCAM1-hemagglutinin (HA) (from UniProt P13591 20-858) (natural protein)
